Test results: patent US20080311034A1 (published 2008)
Values belong to the binder of their own block, whether it stands above or below them.

How the values were obtained:
[1] = molecular target: T1, recombinant human His-tagged FcγRIIIa (extracellular domain made at Centocor) (human, UniProt P08637 17-208); assay: ELISA
T1 construct: extracellular domain; also called CD16a; recombinant, soluble, human FcγRIIIa
Method: (§1) FcγRI (CD64) ELISA —50 μl of a 1 μg/ml solution of recombinant human His-tagged FcγRI (extracellular domain, R&D Systems #1257-FC-050) in ELISA buffer (PBS, pH 7.4, 4 mg/ml BSA, 0.01% Tween-20) was added to each well of HisGrab 96 well plates (Pierce #15142) (Powers G., Notebook 9006, pp. 166-168, 180-181). The plate was incubated with shaking for 3 hours. The plates were washed 3× with 300 μl of wash buffer (PBS, 0.01% Tween-20) on a plate washer. Serial dilutions of the CNTO860 antibody Fc-variant samples were made in ELISA buffer and 50 μl per well of each titration were added in duplicate to the FcγRI-coated plates. The plates were incubated with shaking for 1 hour. The plates were washed 3× with 300 μl of wash buffer on a plate washer. 50 μl of a 1:10,000 dilution of HRP-labeled goat F(ab′)₂ anti-human IgG F(ab′)₂ (Jackson Immunoresearch # 109-036-097) in ELISA buffer was added to each well. The plates were incubated with shaking for 30 minutes. The plates were washed 3× with 300 μl of wash buffer on the plate washer. 50 μl per well TMB substrate (RDI #RDI-TMBSU-1L) was added to each well and developed for 5 minutes. The reaction was stopped by adding 100 μl 0.2 N sulfuric acid. The plates were read at OD450 on an Envision plate reader.
(§2) FcγRIIIa (CD16a) ELISA—A human FcγRIIIa binding assay was done in ELISA format similar to the assay for FcγRI above. 50 μl of a 2 μg/ml solution of recombinant human His-tagged FcγRIIIa (extracellular domain made at Centocor) in ELISA buffer (PBS, 4 mg/ml BSA, 0.01% Tween-20) was added to each well of HisGrab 96 well plates (Pierce #15142) (Powers G., Notebook 10378, 19-23). The plate was incubated for 3 hours at room temp. The plates were blocked with 200 μl of Starting Block (Pierce #15142) for 30 min, and then washed 3× with 300 μl of wash buffer (PBS, 0.01% Tween-20) on a plate washer. Serial dilutions of the CNTO 860 test samples were made in Starting Block buffer and 50 μl per well of each titration were added in duplicate to the FcγRIIIa-coated plates. The plates were incubated for 1 hour. The plates were washed 3× with 300 μl of wash buffer on a plate washer. 50 μl of a 1:10,000 dilution of HRP-labeled goat F(ab′)2 anti-human IgG F(ab′)2 (Jackson Immunoresearch # 109-036-097) in Starting Block buffer was added to each well. The plates were incubated for 30 minutes.

[2] = molecular target: FcγRIIIa on NK cells of human PBMC (human, UniProt P08637 17-254); assay: cell-based or functional assay
Chain of FcγRIIIa on NK cells of human PBMC (P08637 17-254): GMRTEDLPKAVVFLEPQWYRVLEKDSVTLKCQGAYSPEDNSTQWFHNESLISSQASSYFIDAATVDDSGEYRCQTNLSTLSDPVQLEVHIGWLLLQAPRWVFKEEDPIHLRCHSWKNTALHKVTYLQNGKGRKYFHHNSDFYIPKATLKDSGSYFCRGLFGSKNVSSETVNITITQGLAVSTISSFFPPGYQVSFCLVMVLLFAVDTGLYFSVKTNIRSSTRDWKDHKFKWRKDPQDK

[3] = molecular target: T2, recombinant human FcγRIIb (R&D Systems #1875-CD-050) (human, UniProt P31994 46-217, limits assumed); assay: AlphaScreen
T2 construct: Bought; also called CD32b; recombinant, soluble, human FcγRIIb
T2 sequence (looked up): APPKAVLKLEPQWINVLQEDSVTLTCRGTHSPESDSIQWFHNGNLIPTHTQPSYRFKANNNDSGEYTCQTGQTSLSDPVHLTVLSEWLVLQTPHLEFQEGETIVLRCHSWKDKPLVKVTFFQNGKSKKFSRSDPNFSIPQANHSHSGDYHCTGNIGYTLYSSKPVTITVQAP
Method: (§3) FcγRIIa (CD32a) AlphaScreen—Nickel acceptor beads (Perkin Elmer #6760619C) were diluted 1:50 in assay buffer (PBS, pH 7.4, 4 mg/ml BSA, 0.01% Tween-20), and 27.5 μl were added to each well of a Nunc V-bottom polypropylene plate (VWR # 62409-108) (Powers G., Notebook 9006, pp. 169-175, 182-185). A 2.0 μg/ml solution of recombinant human His-tagged FcγRIIa (R&D Systems #1330-CD-050) was prepared in assay buffer and 27.5 μl added to each well of a separate Nunc V bottom polypropylene plate. Titrations of test Abs were prepared in the Nunc V bottom polypropylene plate starting at 30 μg/ml. A 2 μg/ml solution of biotinylated goat F(ab′)₂ anti-human IgG F(ab′)₂ (Jackson Immunoresearch #109-066-097) was prepared in assay buffer and 27.5 μl added to each well of another Nunc V bottom polypropylene plate. A 1:50 dilution of streptavidin donor beads (PerkinElmer # 6760002) was prepared in assay buffer and 27.5 μl added to each well of another Nunc V bottom polypropylene plate. A volume of 5 μl of each reagent was added to the corresponding quadrants of a low-volume, non-binding white 384-well plate (Corning # 3673) in the following order: acceptor beads, FcγRIIa, test Ab, biotinylated anti-human IgG F(ab′)₂, and streptavidin donor beads. The plates were incubated for 30 minutes with shaking and the O.D.s determined using an Envision plate reader.
(§4) FcγRIIb (CD32b) AlphaScreen—The assay was performed as described above for FcγRIIa except that FcγRIIa was replaced with FcγRIIb (R&D Systems #1875-CD-050).

[4] = molecular target: T3, recombinant human His-tagged FcγRIIa (R&D Systems #1330-CD-050) (human, UniProt P12318 36-218, limits assumed); assay: AlphaScreen
T3 construct: Bought; also called CD32a; recombinant, soluble, human FcγRIIa
T3 sequence (looked up): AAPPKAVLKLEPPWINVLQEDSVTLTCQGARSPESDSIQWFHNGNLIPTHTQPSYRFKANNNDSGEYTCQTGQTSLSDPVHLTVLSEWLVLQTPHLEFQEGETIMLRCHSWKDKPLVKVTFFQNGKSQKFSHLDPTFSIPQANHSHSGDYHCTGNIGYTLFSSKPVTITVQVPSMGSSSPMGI
Method: as §3, §4

[5] = molecular target: T4, recombinant human His-tagged FcγRI (extracellular domain, R&D Systems #1257-FC-050) (human, UniProt P12314 16-292); assay: ELISA
T4 construct: extracellular domain; Bought; also called CD64; recombinant, soluble, human FcγRI
T4 sequence (P12314 16-292): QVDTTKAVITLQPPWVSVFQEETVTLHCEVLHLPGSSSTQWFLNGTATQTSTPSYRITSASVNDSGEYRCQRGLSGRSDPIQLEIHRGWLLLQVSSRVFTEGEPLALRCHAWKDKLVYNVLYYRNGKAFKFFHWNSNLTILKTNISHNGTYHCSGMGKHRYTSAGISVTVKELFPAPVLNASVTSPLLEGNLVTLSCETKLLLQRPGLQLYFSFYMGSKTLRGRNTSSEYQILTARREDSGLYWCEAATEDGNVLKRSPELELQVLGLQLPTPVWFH
Method: as §1, §2

T1 sequence (P08637 17-208): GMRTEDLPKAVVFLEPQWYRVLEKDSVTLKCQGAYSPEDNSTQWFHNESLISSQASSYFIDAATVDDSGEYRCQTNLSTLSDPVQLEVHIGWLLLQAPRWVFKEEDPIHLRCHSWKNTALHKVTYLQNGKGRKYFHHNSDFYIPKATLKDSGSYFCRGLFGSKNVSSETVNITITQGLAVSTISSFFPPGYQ

B1: CHO-CNTO 860 I332E (antibody)
heavy: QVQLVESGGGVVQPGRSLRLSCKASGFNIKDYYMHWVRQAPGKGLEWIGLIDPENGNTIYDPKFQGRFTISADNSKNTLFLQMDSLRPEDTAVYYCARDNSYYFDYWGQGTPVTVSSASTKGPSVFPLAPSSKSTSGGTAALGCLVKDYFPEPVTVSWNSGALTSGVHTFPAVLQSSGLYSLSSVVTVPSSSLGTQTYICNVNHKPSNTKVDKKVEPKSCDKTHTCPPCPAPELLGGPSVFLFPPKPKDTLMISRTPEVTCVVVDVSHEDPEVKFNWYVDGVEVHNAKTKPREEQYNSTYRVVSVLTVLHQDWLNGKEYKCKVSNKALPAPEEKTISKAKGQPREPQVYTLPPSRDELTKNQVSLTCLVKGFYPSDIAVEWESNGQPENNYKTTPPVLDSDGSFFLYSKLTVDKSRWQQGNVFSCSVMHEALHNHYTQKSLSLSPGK
light: DIQMTQSPSSLSASVGDRVTITCKASQDIRKYLNWYQQKPGKAPKLLIYYATSLADGVPSRFSGSGSGTDYTFTISSLQPEDIATYYCLQHGESPYTFGQGTKLEITRTVAAPSVFIFPPSDEQLKSGTASVVCLLNNFYPREAKVQWKVDNALQSGNSQESVTEQDSKDSTYSLSSTLTLSKADYEKHKVYACEVTHQGLSSPVTKSFNRGEC
modifications: N-linked glycan at Asn297 of the heavy chain (CHO-type, highly fucosylated); not carried by the letters
notes: IgG1/kappa Fc variant; transiently expressed in CHO cells (p4157/p4146); also called I332E (CHO cell-derived); I332E from CHO cells; copies: 2 + 2
fold better binding than WT from CHO cells [1]: 6 fold
fold potency in ADCC against CHO-CNTO 860 WT [2]: ~7 fold

B3: CHO-CNTO 860 I332E/A330I (antibody, human IgG1, kappa)
heavy: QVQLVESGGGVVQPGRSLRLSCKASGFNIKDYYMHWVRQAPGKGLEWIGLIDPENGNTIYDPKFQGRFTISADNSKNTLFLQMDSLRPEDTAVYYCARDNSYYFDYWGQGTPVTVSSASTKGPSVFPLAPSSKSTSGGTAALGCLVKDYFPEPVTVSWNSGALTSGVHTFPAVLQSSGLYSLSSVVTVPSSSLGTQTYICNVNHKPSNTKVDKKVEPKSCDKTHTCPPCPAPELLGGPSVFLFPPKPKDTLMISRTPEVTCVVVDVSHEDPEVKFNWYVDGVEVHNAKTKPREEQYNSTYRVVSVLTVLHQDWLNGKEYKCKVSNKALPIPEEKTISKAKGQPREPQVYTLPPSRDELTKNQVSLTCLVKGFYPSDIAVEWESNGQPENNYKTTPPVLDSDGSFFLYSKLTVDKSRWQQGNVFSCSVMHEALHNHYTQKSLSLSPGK
light: B1 light
modifications: Heavy chain N297 carries the CHO-type N-linked glycan (about 95% fucosylated); not carried by the letters.
notes: IgG1/kappa Fc variant; transiently expressed in CHO cells (p4185/p4146); EU numbering; also called A330I/I332E (CHO cell-derived); A330I/I332E variant from CHO cells; copies: 2 + 2
fold better binding than WT from CHO cells [1]: ~8 fold

B5: YB2/0-CNTO 860 A330I/I332E (antibody, human IgG1, kappa)
heavy: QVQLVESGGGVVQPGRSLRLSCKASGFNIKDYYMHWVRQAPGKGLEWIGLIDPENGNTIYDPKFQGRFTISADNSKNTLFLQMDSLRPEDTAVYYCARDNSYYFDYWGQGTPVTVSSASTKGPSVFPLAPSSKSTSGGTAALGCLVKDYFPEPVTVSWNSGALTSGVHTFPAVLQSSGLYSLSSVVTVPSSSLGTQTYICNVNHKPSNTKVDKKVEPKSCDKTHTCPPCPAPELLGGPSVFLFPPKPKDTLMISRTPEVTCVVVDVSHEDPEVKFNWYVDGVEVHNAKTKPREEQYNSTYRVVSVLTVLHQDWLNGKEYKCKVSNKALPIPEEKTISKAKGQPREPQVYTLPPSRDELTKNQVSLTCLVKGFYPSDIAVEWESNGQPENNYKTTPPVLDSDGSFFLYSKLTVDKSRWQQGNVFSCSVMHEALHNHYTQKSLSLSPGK
light: B1 light
modifications: N-linked glycan at heavy chain Asn297 (YB2/0-type, low fucose); not carried by the letters
notes: IgG1/kappa Fc variant; stably expressed in YB2/0 cells (p4178/p2402); EU numbering; also called A330I/I332E (YB2/0 cell-derived); A330I/I332E from YB2/0 cells; copies: 2 + 2
fold better binding than WT from YB2/0 cells [1]: 6 fold

B6: YB2/0-CNTO 860 A330I (antibody, IgG1)
heavy: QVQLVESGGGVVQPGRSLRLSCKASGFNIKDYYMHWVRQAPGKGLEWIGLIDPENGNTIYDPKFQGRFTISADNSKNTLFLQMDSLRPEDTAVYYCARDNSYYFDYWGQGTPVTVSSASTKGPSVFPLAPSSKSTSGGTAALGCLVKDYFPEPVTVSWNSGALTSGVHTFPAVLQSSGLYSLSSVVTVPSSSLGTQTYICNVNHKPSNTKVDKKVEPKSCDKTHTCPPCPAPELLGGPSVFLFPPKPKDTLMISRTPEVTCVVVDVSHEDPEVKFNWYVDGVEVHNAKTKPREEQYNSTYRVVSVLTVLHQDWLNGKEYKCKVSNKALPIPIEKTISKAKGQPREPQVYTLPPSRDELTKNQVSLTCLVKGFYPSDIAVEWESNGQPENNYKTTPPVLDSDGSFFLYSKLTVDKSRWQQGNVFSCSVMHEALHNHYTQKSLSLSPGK
light: B1 light
modifications: N-linked glycan at heavy chain Asn297 (YB2/0-type, low fucose); not carried by the letters
notes: IgG1/kappa Fc variant; stably expressed in YB2/0 cells (p4177/p2402); EU numbering; also called A330I (YB2/0 cell-derived); A330I mutant expressed in YB2/0 cells; copies: 2 + 2
fold reduced binding [3]: 500 fold
fold reduced binding [4]: 8 fold
fold reduced binding [5]: < 2 fold

Second part, the binder after the results:

fold better binding than WT from CHO [1]: ~3 fold
B2: YB2/0-CNTO 860 WT (antibody, human IgG1, kappa)
heavy: not shown
light: B1 light
modifications: Heavy chain N297 carries the YB2/0-type N-linked glycan (40-60% fucosylated); not carried by the letters.
notes: Anti-human tissue factor human IgG1/kappa; stably expressed in rat YB2/0 cells (p2401/p2402; YB2/0 Abs typically 40-60% fucosylated), purified by protein A; also called WT (YB2/0 cell-derived); WT from YB2/0 cells; copies: 2 + 2

fold better binding than WT from CHO [1]: ~30 fold
fold better binding than WT from YB2/0 cells [1]: ~10 fold
fold change of the concentration for 25% lysis against WT CNTO860 from CHO host cells [2]: ~100 fold
fold potency in ADCC against YB2/0-CNTO 860 WT [2]: ~8 fold
B4: YB2/0-CNTO 860 I332E (antibody, human IgG1, kappa)
heavy: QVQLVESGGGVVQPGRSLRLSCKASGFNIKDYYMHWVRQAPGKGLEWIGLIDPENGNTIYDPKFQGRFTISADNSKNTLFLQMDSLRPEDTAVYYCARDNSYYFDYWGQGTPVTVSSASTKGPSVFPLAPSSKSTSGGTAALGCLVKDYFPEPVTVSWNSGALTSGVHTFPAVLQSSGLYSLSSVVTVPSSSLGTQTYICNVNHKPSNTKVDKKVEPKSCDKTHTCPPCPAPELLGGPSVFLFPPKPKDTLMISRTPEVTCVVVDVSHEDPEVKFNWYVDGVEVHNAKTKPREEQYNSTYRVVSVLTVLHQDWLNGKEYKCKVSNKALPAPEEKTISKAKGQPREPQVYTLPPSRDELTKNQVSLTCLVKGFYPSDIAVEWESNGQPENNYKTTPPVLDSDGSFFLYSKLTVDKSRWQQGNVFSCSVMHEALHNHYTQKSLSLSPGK
light: B1 light
modifications: Heavy chain N297 carries the YB2/0-type low-fucose N-linked glycan; not carried by the letters.
notes: IgG1/kappa Fc variant; stably expressed in YB2/0 cells (p4148/p2402), low-fucose glycan; EU numbering; also called I332E (YB2/0 cell-derived); I332E from YB2/0 cells; copies: 2 + 2
